This note sets out measurements from patent publication US20090136495A1 (Eli Lilly, published 2009).

Experiment [1] deals with ferroportin C-terminally fused with green fluorescent protein (human), Q9NP59. Description: cell-based or functional assay.
Experiment [2] has as its target T1, human hepcidin-25 (human, not fully specified).
T1 construct: also called human mature hepcidin
T1 peptide: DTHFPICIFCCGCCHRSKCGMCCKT
Description: SPR (BIAcore), Fab captured on goat anti-human kappa, human hepcidin-25 injected, 25 C.
Description: (§1) Except as noted, all reagents and materials are purchased from BIAcore® AB (Upsala, Sweden). All measurements are performed at 25° C. Samples are dissolved in HBS-EP buffer (150 mM sodium chloride, 3 mM EDTA, 0.05% (w/v) surfactant P-20, and 10 mM HEPES, pH 7.4). To capture Fabs with human kappa, goat-anti-human kappa is immobilized on flow cells 1 to 4 of a CM5 sensor chip at a level of 5000-10000 response units (Rus) using an amine coupling kit. To capture Mabs with mouse IgG1, goat-anti-mouse Fc gamma is immobilized on flow cells 1 to 4 of a CM5 sensor chip at a level of 5000-10000 Rus using an amine coupling kit. To capture antibodies with human IgG4, protein A is immobilized on flow cells 1 to 4 of a CM4 sensor chip at a level of 400-700 Rus using an amine coupling kit. Fabs prepared from E. coli periplasma and Mabs prepared from mammalian cell culture are evaluated using multiple analytical cycles. […] The measurements are obtained at 25° C. and the association and dissociation rates for each cycle are evaluated using a “1:1 with mass transfer” binding model in the BLAevaluation software.

The target of experiment [3] is T2, rat hepcidin-25 (rat, UniProt Q99MH3 60-84).
T2 construct: mature
T2 peptide (looked up): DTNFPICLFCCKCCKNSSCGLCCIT
The experiment in a line: SPR (BIAcore), 25 C. (Surface plasmon resonance follows binding to a sensor surface in real time, without labels.)
Description: as §1

In experiment [4] the target is T3, mouse hepcidin-25 (mouse, UniProt Q9EQ21 59-83).
T3 construct: mature
T3 peptide (looked up): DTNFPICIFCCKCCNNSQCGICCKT
Description: SPR (BIAcore), captured Mab, mouse hepcidin-25 injected, 25 C.
Description: as §1

Experiment [5] has as its target T4, cynomolgus monkey hepcidin-25 (cynomolgus monkey, UniProt A7XEI3 60-84, not fully specified).
T4 construct: mature; also called mature cynomolgous monkey hepcidin
T4 peptide: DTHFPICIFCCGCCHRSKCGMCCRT
Description: SPR (BIAcore), captured Mab, cynomolgus monkey hepcidin-25 injected, 25 C.
Description: as §1

In experiment [6] the target is T1, human hepcidin-25. Description: SPR (BIAcore), Mab captured on protein A, human hepcidin-25 injected, 25 C.
Description: as §1
Experiment [7] concerns the target T4, cynomolgus monkey hepcidin-25. The experiment in a line: SPR (BIAcore), 25 C.
Description: as §1

Where no end group is shown, it is not given here.

ferroportin C-terminally fused with green fluorescent protein (human), Q9NP59, sequence (Q9NP59 whole entry, the tested form may be a part): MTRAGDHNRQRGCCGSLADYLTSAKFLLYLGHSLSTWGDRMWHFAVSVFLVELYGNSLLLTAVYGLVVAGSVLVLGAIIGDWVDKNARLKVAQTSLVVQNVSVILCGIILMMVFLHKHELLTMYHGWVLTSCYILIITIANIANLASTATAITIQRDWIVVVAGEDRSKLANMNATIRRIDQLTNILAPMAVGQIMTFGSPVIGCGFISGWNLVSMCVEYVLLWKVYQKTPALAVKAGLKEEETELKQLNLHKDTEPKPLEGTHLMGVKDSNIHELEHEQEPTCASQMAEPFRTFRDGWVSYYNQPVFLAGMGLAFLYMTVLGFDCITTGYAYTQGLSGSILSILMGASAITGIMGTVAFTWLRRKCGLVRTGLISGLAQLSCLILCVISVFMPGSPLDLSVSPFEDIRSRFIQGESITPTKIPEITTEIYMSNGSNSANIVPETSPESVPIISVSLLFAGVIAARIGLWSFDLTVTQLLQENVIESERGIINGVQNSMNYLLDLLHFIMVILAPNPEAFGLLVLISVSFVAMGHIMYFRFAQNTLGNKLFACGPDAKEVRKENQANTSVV

For the molecule DTHFPICIFCCGCCHRSKCGMCCKT (ends and bridges not checked; cysteine pairing not given here) [human hepcidin-25], the hepcidin-induced internalization and degradation of ferroportin (FPN-GFP fluorescence in HEK 293 cells), concentration of maximal effect in experiment [1] was determined as 0.5 µM.

B1: Fab 3.12 (Fab, V domains shown)
VH: QVQLVQSGAEVKKPGSSVKVSCKASGYTFLIYPISWVRQAPGQGLEWMGNFHPYLGVTNYLEKFKGRVTITADKSTSTAYMELSSLRSEDTAVYYCARGGTGSFDYWGQGTTVTVSS
VL: DIQMTQSPSSLSASVGDRVTITCSASSRVSSTYLFWYQQKPGKAPKLLIYRTSTLTSGVPSRFSGSGSGTDFTLTISSLQPEDFATYYCQQWSGYPFVFGGGTKVEIK
notes: Fab with human kappa, from E. coli periplasm; frameworks O2 and VH1-69
In experiment [2], B1 registered a Kd of 0.0883 nM, a koff of 0.000347 s⁻¹ and a kon of 3.94e+06 M⁻¹ s⁻¹.

B2: Mab 3.23 (antibody, human IgG4 S228P, kappa, V domains shown)
VH: QVQLVQSGAEVKKPGSSVKVSCKASGYTFLIYPISWVRQAPGQGLEWMGNFHPYLGVTNYVEKFKGRVTITADKSTSTAYMELSSLRSEDTAVYYCARGGTGSFDYWGQGTTVTVSS
VL: DIQMTQSPSSLSASVGDRVTITCSASSRVSSTYLFWYQQKPGKAPKLLIYRTSPLASGVPSRFSGSGSGTDFTLTISSLQPEDFATYYCQQWSGYPFVFGGGTKVEIKR
On to B2, for which, in experiment [3], the binding result is recorded as “no binding”. In experiment [4], this molecule returned an equilibrium dissociation constant (Kd) of 50.1 nM, a koff of 0.192 s⁻¹ and an association rate constant (kon) of 3.83e+06 M⁻¹ s⁻¹. Further, in experiment [5], the Kd came out at 0.0888 nM, the off-rate constant (koff) amounted to 0.000577 s⁻¹ and the kon is 6.51e+06 M⁻¹ s⁻¹. Also, in experiment [6], the Kd stood at 0.0994 nM, the off-rate constant (koff) was 0.000659 s⁻¹ and the kon was 6.2e+06 M⁻¹ s⁻¹.

B3: Mab 3.8 (antibody, human IgG4, V domains shown)
VH: QVQLVQSGAEVKKPGSSVKVSCKASGYTFLIYPISWVRQAPGQGLEWMGNFHPYLGVTNYLEKFKGRVTITADKSTSTAYMELSSLRSEDTAVYYCARGGTGSFDYWGQGTTVTVSS
VL: DIQMTQSPSSLSASVGDRVTITCSASSRVSSTYLFWYQQKPGKAPKLLIYRTSPLASGVPSRFSGSGSGTDFTLTISSLQPEDFATYYCQQWSGYPFTFGGGTKVEIKR
notes: Human engineered Mab, human IgG4
B3: the “fold lower KD than for human hepcidin-25” value in experiment [7] was > 10 fold. Further, in experiment [4], the affinity, expressed as Kd, was 34.6 nM; the koff came out at 0.124 s⁻¹; the kon turned out to be 3.57e+06 M⁻¹ s⁻¹. Moreover, in experiment [5], the Kd worked out at 0.00933 nM, the koff turned out to be 0.00066 s⁻¹ and the kon was found to be 7.07e+07 M⁻¹ s⁻¹. In experiment [6], this molecule registered a Kd of 0.105 nM, a koff of 0.000768 s⁻¹ and a kon of 5.58e+06 M⁻¹ s⁻¹.

B4: Mab 3.12 (antibody, human IgG4 S228P, kappa, V domains shown)
VH: QVQLVQSGAEVKKPGSSVKVSCKASGYTFLIYPISWVRQAPGQGLEWMGNFHPYLGVTNYLEKFKGRVTITADKSTSTAYMELSSLRSEDTAVYYCARGGTGSFDYWGQGTTVTVSS
VL: DIQMTQSPSSLSASVGDRVTITCSASSRVSSTYLFWYQQKPGKAPKLLIYRTSTLTSGVPSRFSGSGSGTDFTLTISSLQPEDFATYYCQQWSGYPFVFGGGTKVEIKR
In experiment [6], B4 yielded a Kd of 0.0599 nM, a koff of 0.00022 s⁻¹ and a kon of 3.68e+06 M⁻¹ s⁻¹.

B5: Mab L1.5 (antibody, human IgG4 S228P, kappa, V domains shown)
VH: QVQLVQSGAEVKKPGSSVKVSCKASGYTFLIYPISWVRQAPGQGLEWMGNFHPYLGVTNYLEKFKGRVTITADKSTSTAYMELSSLRSEDTAVYYCARGGTGSFDYWGQGTTVTVSS
VL: DIQMTQSPSSLSASVGDRVTITCSAESRVSSTYLFWYQQKPGKAPKLLIYRTSPLASGVPSRFSGSGSGTDFTLTISSLQPEDFATYYCQQWSGYPFTFGGGTKVEIKR
With B5, in experiment [6], the Kd came to 0.0342 nM, the koff was determined as 0.000182 s⁻¹ and the kon turned out to be 5.31e+06 M⁻¹ s⁻¹.

B6: Mab Hu22 (antibody, human IgG4 S228P, kappa, V domains shown)
VH: QVQLVQSGAEVKKPGSSVKVSCKASGYTFTIYPISWVRQAPGQGLEWMGNFHPYLGDTNYNEKFKGRVTITADKSTSTAYMELSSLRSEDTAVYYCARGGTGSFDYWGQGTTVTVSS
VL: DIQMTQSPSSLSASVGDRVTITCSASSRVSSTYLFWYQQKPGKAPKLLIYRTSTLASGVPSRFSGSGSGTDFTLTISSLQPEDFATYYCQQWSGYPFTFGGGTKVEIKR
Regarding B6, the binding result in experiment [3] is given as “no binding”. The Kd in experiment [4] was found to be 77.6 nM; in experiment [5], 0.986 nM; in experiment [6], 0.764 nM. Besides, the koff in experiment [4] was 0.126 s⁻¹; in experiment [5] it was 0.00816 s⁻¹; in experiment [6], 0.00864 s⁻¹. Besides, the kon in experiment [4] was 1.62e+06 M⁻¹ s⁻¹; in experiment [5], 8.13e+06 M⁻¹ s⁻¹; in experiment [6], 1.09e+07 M⁻¹ s⁻¹.

B7: Fab Hu22 (Fab, V domains shown)
VH: QVQLVQSGAEVKKPGSSVKVSCKASGYTFTIYPISWVRQAPGQGLEWMGNFHPYLGDTNYNEKFKGRVTITADKSTSTAYMELSSLRSEDTAVYYCARGGTGSFDYWGQGTTVTVSS
VL: DIQMTQSPSSLSASVGDRVTITCSASSRVSSTYLFWYQQKPGKAPKLLIYRTSTLASGVPSRFSGSGSGTDFTLTISSLQPEDFATYYCQQWSGYPFTFGGGTKVEIK
notes: as for B1
With B7, in experiment [2], the Kd turned out to be 0.647 nM, the dissociation rate constant (koff) was 0.00456 s⁻¹ and the kon was 7.05e+06 M⁻¹ s⁻¹.

B8: Fab 3.23 (Fab, V domains shown)
VH: QVQLVQSGAEVKKPGSSVKVSCKASGYTFLIYPISWVRQAPGQGLEWMGNFHPYLGVTNYVEKFKGRVTITADKSTSTAYMELSSLRSEDTAVYYCARGGTGSFDYWGQGTTVTVSS
VL: DIQMTQSPSSLSASVGDRVTITCSASSRVSSTYLFWYQQKPGKAPKLLIYRTSPLASGVPSRFSGSGSGTDFTLTISSLQPEDFATYYCQQWSGYPFVFGGGTKVEIK
notes: as for B1
With B8, in experiment [2], the Kd came to 0.0788 nM, the koff came out at 0.000278 s⁻¹ and the kon came to 3.53e+06 M⁻¹ s⁻¹.

B9: Fab 1.7 (Fab, V domains shown)
VH: QVQLVQSGAEVKKPGSSVKVSCKASGYTFTIYPISWVRQAPGQGLEWMGNFHPYLGDTRYVEKFKGRVTITADKSTSTAYMELSSLRSEDTAVYYCARGGTGSFDYWGQGTTVTVSS
VL: DIQMTQSPSSLSASVGDRVTITCSASSRVSSTYLFWYQQKPGKAPKLLIYRTSTLVSGVPSRFSGSGSGTDFTLTISSLQPEDFATYYCQQWSGYPFVFGGGTKVEIK
notes: Fab with human kappa
Regarding B9, in experiment [2], the Kd amounted to 0.422 nM, the koff is 0.00148 s⁻¹ and the kon was 3.8e+06 M⁻¹ s⁻¹.

As a reminder, the Kd is the free concentration of one partner at which half of the binding sites on the other are occupied at equilibrium, for simple one-to-one binding. As a reminder, the koff is the first-order rate constant of dissociation. A word on the kon: it is the rate constant with which the complex forms.
